B1: RARa: Retinoic acid receptor α (NR1B1), nuclear hormone receptor cDNA driver (protein, UniProt P10276 1-462, looked up)
Retinoic acid receptor alpha: MASNSSSCPTPGGGHLNGYPVPPYAFFFPPMLGGLSPPGALTTLQHQLPVSGYSTPSPATIETQSSSSEEIVPSPPSPPPLPRIYKPCFVCQDKSSGYHYGVSACEGCKGFFRRSIQKNMVYTCHRDKNCIINKVTRNRCQYCRLQKCFEVGMSKESVRNDRNKKKKEVPKPECSESYTLTPEVGELIEKVRKAHQETFPALCQLGKYTTNNSSEQRVSLDIDLWDKFSELSTKCIIKTVEFAKQLPGFTTLTIADQITLLKAACLDILILRICTRYTPEQDTMTFSDGLTLNRTQMHNAGFGPLTDLVFAFANQLLPLEMDDAETGLLSAICLICGDRQDLEQPDRVDMLQEPLLEALKVYVRKRRPSRPHMFPKMLMKITDLRSISAKGAERVITLKMEIPGSMPPLIQEMLENSEGLDTLSGQPGGGGRDGGGLAPPPGSCSPSLSPSSNRSSPATHSP
B2: RVRb: Rev-Erb β (NR1D2, alternative name RVR), cDNA driver (protein, UniProt Q14995 1-579, looked up)
Nuclear receptor subfamily 1 …: MEVNAGGVIAYISSSSSASSPASCHSEGSENSFQSSSSSVPSSPNSSNSDTNGNPKNGDLANIEGILKNDRIDCSMKTSKSSAPGMTKSHSGVTKFSGMVLLCKVCGDVASGFHYGVHACEGCKGFFRRSIQQNIQYKKCLKNENCSIMRMNRNRCQQCRFKKCLSVGMSRDAVRFGRIPKREKQRMLIEMQSAMKTMMNSQFSGHLQNDTLVEHHEQTALPAQEQLRPKPQLEQENIKSSSPPSSDFAKEEVIGMVTRAHKDTFMYNQEQQENSAESMQPQRGERIPKNMEQYNLNHDHCGNGLSSHFPCSESQQHLNGQFKGRNIMHYPNGHAICIANGHCMNFSNAYTQRVCDRVPIDGFSQNENKNSYLCNTGGRMHLVCPMSKSPYVDPHKSGHEIWEEFSMSFTPAVKEVVEFAKRIPGFRDLSQHDQVNLLKAGTFEVLMVRFASLFDAKERTVTFLSGKKYSVDDLHSMGAGDLLNSMFEFSEKLNALQLSDEEMSLFTAVVLVSADRSGIENVNSVEALQETLIRALRTLIMKNHPNEASIFTKLLLKLPDLRSLNNMHSEELLAFKVHP
B3: PPARd: Peroxisome proliferator activated receptor δ (NR1C2), cDNA driver (protein, UniProt Q03181 1-441, looked up)
Peroxisome …: MEQPQEEAPEVREEEEKEEVAEAEGAPELNGGPQHALPSSSYTDLSRSSSPPSLLDQLQMGCDGASCGSLNMECRVCGDKASGFHYGVHACEGCKGFFRRTIRMKLEYEKCERSCKIQKKNRNKCQYCRFQKCLALGMSHNAIRFGRMPEAEKRKLVAGLTANEGSQYNPQVADLKAFSKHIYNAYLKNFNMTKKKARSILTGKASHTAPFVIHDIETLWQAEKGLVWKQLVNGLPPYKEISVHVFYRCQCTTVETVRELTEFAKSIPSFSSLFLNDQVTLLKYGVHEAIFAMLASIVNKDGLLVANGSGFVTREFLRSLRKPFSDIIEPKFEFAVKFNALELDDSDLALFIAAIILCGDRPGLMNVPRVEAIQDTILRALEFHLQANHPDAQYLFPKLLQKMADLRQLVTEHAQMMQRIKKTETETSLHPLLQEIYKDMY
B4: RARb: Retinoic acid receptor β (NR1B2), nuclear hormone receptor cDNA driver (protein, UniProt P10826 1-455, looked up)
Retinoic acid receptor beta: MTTSGHACPVPAVNGHMTHYPATPYPLLFPPVIGGLSLPPLHGLHGHPPPSGCSTPSPATIETQSTSSEELVPSPPSPLPPPRVYKPCFVCQDKSSGYHYGVSACEGCKGFFRRSIQKNMIYTCHRDKNCVINKVTRNRCQYCRLQKCFEVGMSKESVRNDRNKKKKETSKQECTESYEMTAELDDLTEKIRKAHQETFPSLCQLGKYTTNSSADHRVRLDLGLWDKFSELATKCIIKIVEFAKRLPGFTGLTIADQITLLKAACLDILILRICTRYTPEQDTMTFSDGLTLNRTQMHNAGFGPLTDLVFTFANQLLPLEMDDTETGLLSAICLICGDRQDLEEPTKVDKLQEPLLEALKIYIRKRRPSKPHMFPKILMKITDLRSISAKGAERVITLKMEIPGSMPPLIQEMLENSEGHEPLTPSSSGNTAEHSPSISPSSVENSGVSQSPLVQ
B5: RARg: Retinoic acid receptor γ (NR1B3), nuclear hormone receptor cDNA driver (protein, UniProt P13631 1-454, looked up)
Retinoic acid receptor gamma: MATNKERLFAAGALGPGSGYPGAGFPFAFPGALRGSPPFEMLSPSFRGLGQPDLPKEMASLSVETQSTSSEEMVPSSPSPPPPPRVYKPCFVCNDKSSGYHYGVSSCEGCKGFFRRSIQKNMVYTCHRDKNCIINKVTRNRCQYCRLQKCFEVGMSKEAVRNDRNKKKKEVKEEGSPDSYELSPQLEELITKVSKAHQETFPSLCQLGKYTTNSSADHRVQLDLGLWDKFSELATKCIIKIVEFAKRLPGFTGLSIADQITLLKAACLDILMLRICTRYTPEQDTMTFSDGLTLNRTQMHNAGFGPLTDLVFAFAGQLLPLEMDDTETGLLSAICLICGDRMDLEEPEKVDKLQEPLLEALRLYARRRRPSQPYMFPRMLMKITDLRGISTKGAERAITLKMEIPGPMPPLIREMLENPEMFEDDSSQPGPHPNASSEDEVPGGQGKGGLKSPA

Results on five molecules are retold here after patent publication US20110263454A1, “Methods of Identifying Functional Characteristics of Promoters, Transcription Modifying Proteins and Transcription Modulating Agents” (Salk Institute for Biological Studies, priority 2008, published 2011).

The test system of the first assay is mPer1 promoter. As to the kind of experiment: NHR-promoter luciferase screen, mPer1 promoter. As to conditions: Per1 promoter reporter; co-transfected HR, with or without its ligand. The assay is classed as cell-based, mouse. In short, it runs like this:
(§1)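 CV-1 cells were co-transfected with 50 ng NHR (homodimer or NHR/RXR heterodimer), 100 ng promoter-luciferase construct and 50 ng LacZ. Luciferase was normalized to LacZ and to a no-NHR/no-ligand control.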
Consider B1, for which the “Luc. act., normalized to lacZ” value is on record as 85.4.

For B2, the “Luc. act., normalized to lacZ” value amounted to 118.3.

In the case of B3, the “Luc. act., normalized to lacZ” value worked out at 187.6.

For B4, the “Luc. act., normalized to lacZ” value was 89.3.

B5: the “Luc. act., normalized to lacZ” value is 120.3.

The same assay, now with this note: Per1 promoter reporter; co-transfected HR, with or without its ligand; relative to control.
For the molecule B1, the “Normalized Luc. act., normalized to control” value worked out at 0.6.

For the molecule B2, the “Normalized Luc. act., normalized to control” value came to 0.8.

Regarding B3, the “Normalized Luc. act., normalized to control” value came to 1.3.

For B4, the “Normalized Luc. act., normalized to control” value was found to be 0.6.

On to B5, for which the “Normalized Luc. act., normalized to control” value came to 0.8.

The same assay, now with this note: mPer1 promoter-luciferase, CV-1 cells, NHR +/- ligand, control = 1.00.
As to B1, the “luciferase activity normalized to lacZ activity and to a control, mPer1” value (from here on “luciferase activity normalized”) was determined as 0.59.

Take B2: the “luciferase activity normalized” value was 0.82.

In the case of B3, the “luciferase activity normalized” value stood at 1.30.

For B4, the “luciferase activity normalized” value came to 0.62.

As for B5, the “luciferase activity normalized” value is 0.84.

A further assay has as its system mLeptin promoter. Description: NHR-promoter luciferase screen, mLeptin promoter. Type of assay: cell-based, mouse. The settings on record: Table 7; mLeptin. In short, it runs like this: as §1
Regarding B1, the “Luc. act., normalized to lacZ” value is 2.4 and the “Normalized Luc. act., normalized to control” value came to 0.8.

Take B2: the “Luc. act., normalized to lacZ” value was found to be 4.4 and the “Normalized Luc. act., normalized to control” value is 1.5.

As to B3, the “Luc. act., normalized to lacZ” value was found to be 2.6 and the “Normalized Luc. act., normalized to control” value came out at 0.9.

Take B4: the “Luc. act., normalized to lacZ” value amounted to 2.7 and the “Normalized Luc. act., normalized to control” value is 0.9.

On to B5, for which the “Luc. act., normalized to lacZ” value came out at 3.6 and the “Normalized Luc. act., normalized to control” value was 1.2.

The same assay, now with this note: Table 6d; luciferase activity relative to control (control = 1.00).
B1: the “Results of assays of transcription factor (+/- ligand) with mLeptin” value (“Results of assays … with mLeptin” for short) is 0.82.

For B2, the “Results of assays … with mLeptin” value is listed as 1.50.

Regarding B3, the “Results of assays … with mLeptin” value is listed as 0.89.

For B4, the “Results of assays … with mLeptin” value is listed as 0.91.

On to B5, for which the “Results of assays … with mLeptin” value was 1.21.

The next assay has as its system mNPY promoter. As to the kind of experiment: NHR-promoter luciferase screen, mNPY promoter. Type of assay: cell-based, mouse. As to conditions: Table 6d; luciferase activity relative to control (control = 1.00). In short, it runs like this: as §1
For B1, the “Results of assays of transcription factor (+/- ligand) with mNPY” value (shortened to “Results of assays … with mNPY”) worked out at 1.24.

B2: the “Results of assays … with mNPY” value was 1.67.

Turning to B3, the “Results of assays … with mNPY” value is 0.70.

For B4, the “Results of assays … with mNPY” value amounted to 1.17.

For B5, the “Results of assays … with mNPY” value was 1.20.

The assay is the same for the next values; noted with them: mNPY promoter; HR component with or without ligand.
Turning to B1, the “Luc. act., normalized to lacZ” value worked out at 103.8.

As to B2, the “Luc. act., normalized to lacZ” value was determined as 140.6.

B3: the “Luc. act., normalized to lacZ” value turned out to be 58.5.

On to B4, for which the “Luc. act., normalized to lacZ” value was 97.9.

For B5, the “Luc. act., normalized to lacZ” value amounted to 100.5.

Staying with this assay, now noted: mNPY promoter; HR component with or without ligand; relative to control.
Turning to B1, the “Normalized Luc. act., normalized to control” value worked out at 1.2.

Regarding B2, the “Normalized Luc. act., normalized to control” value was 1.7.

In the case of B3, the “Normalized Luc. act., normalized to control” value was determined as 0.7.

As to B4, the “Normalized Luc. act., normalized to control” value stood at 1.2.

B5: the “Normalized Luc. act., normalized to control” value is given as 1.2.

Another assay concerns hPPARg1 promoter. As to the kind of experiment: NHR-promoter luciferase screen, hPPARg1 promoter. The assay is classed as cell-based, human. As to conditions: PPARG1 promoter; hormone receptor with or without its ligand. In short, it runs like this: as §1
For B1, the “Luc. act., normalized to lacZ” value amounted to 86.6.

For B2, the “Luc. act., normalized to lacZ” value is 55.5.

As for B3, the “Luc. act., normalized to lacZ” value is reported as 46.0.

As to B4, the “Luc. act., normalized to lacZ” value was 100.6.

On to B5, for which the “Luc. act., normalized to lacZ” value turned out to be 80.1.

The assay is the same for the next values; noted with them: PPARG1 promoter; hormone receptor with or without its ligand; relative to control.
Regarding B1, the “Normalized Luc. act., normalized to control” value turned out to be 1.3.

As for B2, the “Normalized Luc. act., normalized to control” value is 0.8.

Regarding B3, the “Normalized Luc. act., normalized to control” value is on record as 0.7.

Regarding B4, the “Normalized Luc. act., normalized to control” value is 1.5.

Turning to B5, the “Normalized Luc. act., normalized to control” value worked out at 1.2.

The same assay, now with this note: Table 6d; luciferase activity relative to control (control = 1.00).
Consider B1, for which the “Results of assays of transcription factor (+/- ligand) with hPPARg1” value (“Results of assays … with hPPARg1” for short) is on record as 1.26.

For the molecule B2, the “Results of assays … with hPPARg1” value is 0.81.

As to B3, the “Results of assays … with hPPARg1” value was 0.67.

As for B4, the “Results of assays … with hPPARg1” value is given as 1.46.

In the case of B5, the “Results of assays … with hPPARg1” value turned out to be 1.16.

The next assay deals with hPPARg2 promoter. As to the kind of experiment: NHR-promoter luciferase screen, hPPARg2 promoter. Type of assay: cell-based, human. The settings on record: PPARG2 promoter; hormone receptor with or without its ligand. In short, it runs like this:
as §1
With B1, the “Luc. act., normalized to lacZ” value is listed as 3.5.

For B2, the “Luc. act., normalized to lacZ” value came to 1.0.

For B3, the “Luc. act., normalized to lacZ” value worked out at 2.5.

On to B4, for which the “Luc. act., normalized to lacZ” value worked out at 3.4.

B5: the “Luc. act., normalized to lacZ” value stood at 3.0.

The assay is the same for the next values; noted with them: PPARG2 promoter; hormone receptor with or without its ligand; relative to control.
On to B1, for which the “Normalized Luc. act., normalized to control” value was determined as 1.7.

Turning to B2, the “Normalized Luc. act., normalized to control” value is 0.5.

Take B3: the “Normalized Luc. act., normalized to control” value is given as 1.2.

Consider B4, for which the “Normalized Luc. act., normalized to control” value was found to be 1.7.

B5: the “Normalized Luc. act., normalized to control” value turned out to be 1.5.

The assay is the same for the next values; noted with them: Table 6d; luciferase activity relative to control (control = 1.00).
Consider B1, for which the “Results of assays of transcription factor (+/- ligand) with hPPARg2” value (shortened to “Results of assays … with hPPARg2”) was 1.73.

In the case of B2, the “Results of assays … with hPPARg2” value amounted to 0.48.

Turning to B3, the “Results of assays … with hPPARg2” value is recorded as 1.24.

As for B4, the “Results of assays … with hPPARg2” value was found to be 1.72.

For the molecule B5, the “Results of assays … with hPPARg2” value came out at 1.51.
